Experimental data: patent US20200199241A1 (Chugai, published 2020)
Numbering of substitutions follows the chain as printed. Names and notes keep the numbering of the source.

B1: IgG1-F391 (antibody)
heavy: QVQLQESGPGLVKPSETLSLTCAVSGHSISHDHAWSWVRQPPGEGLEWIGFISYSGITNYNPSLQGRVTISRDNSKNTLYLQMNSLRAEDTAVYYCARSLARTTAMDYWGEGTLVTVSSASTKGPSVFPLAPSSKSTSGGTAALGCLVKDYFPEPVTVSWNSGALTSGVHTFPAVLQSSGLYSLSSVVTVPSSSLGTQTYICNVNHKPSNTKVDKKVEPKSCDKTHTCPPCPAPELLGGPSVFLFPPKPKDTLWISRTPEVTCVVVDVSHEDPEVKFNWYVDGVEVHNAKTKPREEQYNSTYRVVSVLTPAHQDWLNGKEYKCKVSNKALPAPIEKTISKAKGQPREPQVYTLPPSRDELTKNQVSLTCLVKGFYPSDIAVEWESNGQPENNYKTTPPVLDSDGSFFLYSKLTVDKSRWQQGNVFSCSVYHEALHYHYTQKSLSLSP
light: not shown
notes: EU numbering; copies: 2 + 2
B2: IgG1-F406 (antibody)
heavy: B1 heavy with W254M, P259A, T309Q, P310V, A311R, Y430L
light: not shown
notes: EU numbering; copies: 2 + 2
B3: IgG1-F396 (antibody)
heavy: B1 heavy with S241K, W254Y, D272F, N288E, T309Q, P310V, A311L, Q313A, Y430I
light: not shown
notes: EU numbering; copies: 2 + 2
B4: IgG1-F444 (antibody)
heavy: B1 heavy with W254M, P259A, T309A, P310V, A311L, Q313A, Y430L
light: not shown
notes: EU numbering; copies: 2 + 2
B5: IgG1-F442 (antibody)
heavy: B1 heavy with W254M, P259A, P310V, A311L, Q313H, Y430L
light: not shown
notes: EU numbering; copies: 2 + 2
B6: IgG1-F452 (antibody)
heavy: B1 heavy with W254M, P259M, T309A, P310V, A311L, Y430L
light: not shown
notes: EU numbering; copies: 2 + 2
B7: IgG1-F438 (antibody)
heavy: B1 heavy with W254M, P259A, T309Q, P310V, A311L
light: not shown
notes: EU numbering; copies: 2 + 2
B8: IgG1-F410 (antibody)
heavy: B1 heavy with W254M, P259V, T309H, P310V, A311L, Y430L
light: not shown
notes: EU numbering; copies: 2 + 2
B9: IgG1-F457 (antibody)
heavy: B1 heavy with S241K, W254M, P259V, A311L, Y430L
light: not shown
notes: EU numbering; copies: 2 + 2
B10: IgG1-F440 (antibody)
heavy: B1 heavy with W254M, P259V, N288E, T309Q, P310V, A311L, Q313A, N327G, Y430L
light: not shown
notes: EU numbering; copies: 2 + 2
B11: IgG1-F431 (antibody)
heavy: B1 heavy with W254Y, P259V, T309Q, P310V, A311L, Y430F
light: not shown
notes: EU numbering; copies: 2 + 2
B12: IgG1-F432 (antibody)
heavy: B1 heavy with W254M, P259V, T309Q, P310V, A311L, Q313A, N327G, Y430V
light: not shown
notes: EU numbering; copies: 2 + 2
B13: IgG1-F429 (antibody)
heavy: B1 heavy with W254Y, P259V, T309Q, P310V, A311L, Y430M
light: not shown
notes: EU numbering; copies: 2 + 2
B14: IgG1-F433 (antibody)
heavy: B1 heavy with W254M, P259V, T309Q, P310V, A311L, Q313A, N327G, Y430M
light: not shown
notes: EU numbering; copies: 2 + 2
B15: IgG1-F448 (antibody)
heavy: B1 heavy with W254M, P259A, N288E, T309A, P310V, A311L, Y430L
light: not shown
notes: EU numbering; copies: 2 + 2
B16: IgG1-F426 (antibody)
heavy: B1 heavy with W254M, P259V, T309Q, P310V, A311L, Y430M
light: not shown
notes: EU numbering; copies: 2 + 2
B17: IgG1-F424 (antibody)
heavy: B1 heavy with S241K, W254M, P259A, A311L, Y430L
light: not shown
notes: copies: 2 + 2
B18: IgG1-F411 (antibody)
heavy: B1 heavy with W254M, P259V, T309N, P310V, A311L, Y430L
light: not shown
notes: EU numbering; copies: 2 + 2
B19: IgG1-F423 (antibody)
heavy: B1 heavy with W254Y, T309W, P310V, A311L, Q313H, Y430M
light: not shown
notes: EU numbering; copies: 2 + 2
B20: IgG1-F454 (antibody)
heavy: B1 heavy with W254M, P259I, T309A, P310V, A311L, Y430L
light: not shown
notes: EU numbering; copies: 2 + 2
B21: IgG1-F403 (antibody)
heavy: B1 heavy with W254M, P259V, T309A, P310V, A311L, Y430L, Y436W
light: not shown
notes: EU numbering; copies: 2 + 2
B22: IgG1-F416 (antibody)
heavy: B1 heavy with W254M, P259V, T309A, P310V, A311L, P389E, Y430L
light: not shown
notes: EU numbering; copies: 2 + 2
B23: IgG1-F399 (antibody)
heavy: B1 heavy with S241K, W254Y, D272F, N288E, T309Q, A311L, Y430I
light: not shown
notes: EU numbering; copies: 2 + 2
B24: IgG1-F456 (antibody)
heavy: B1 heavy with W254M, P259V, T309Q, P310V, A311L, Y430F
light: not shown
notes: EU numbering; copies: 2 + 2
B25: IgG1-F404 (antibody)
heavy: B1 heavy with W254M, P259A, T309Q, P310V, A311P, Y430L
light: not shown
notes: EU numbering; 'M928L' read as M428L; copies: 2 + 2
B26: IgG1-F451 (antibody)
heavy: B1 heavy with W254M, P259S, T309A, P310V, A311L, Y430L
light: not shown
notes: EU numbering; copies: 2 + 2
B27: IgG1-F420 (antibody)
heavy: B1 heavy with W254Y, T309A, P310V, A311L, Q313H, P389E, Y430M
light: not shown
notes: EU numbering; copies: 2 + 2
B28: IgG1-F455 (antibody)
heavy: B1 heavy with W254M, P259V, T309Q, P310V, A311L
light: not shown
notes: EU numbering; copies: 2 + 2
B29: IgG1-F400 (antibody)
heavy: B1 heavy with S241K, W254Y, D272F, N288E, A311L, Q313A, Y430I
light: not shown
notes: EU numbering; copies: 2 + 2
B30: IgG1-F459 (antibody)
heavy: B1 heavy with W254M, P259V, T309Q, A311L, Q313A, N327G, Y430L
light: not shown
notes: EU numbering; copies: 2 + 2
B31: IgG1-F401 (antibody)
heavy: B1 heavy with S241K, W254Y, D272F, N288E, A311L, P389E, Y430I
light: not shown
notes: EU numbering; 'N431Y' as printed, probably N434Y; copies: 2 + 2
B32: IgG1-F415 (antibody)
heavy: B1 heavy with W254M, P259V, N288E, T309A, P310V, A311L, Y430L
light: not shown
notes: EU numbering; copies: 2 + 2
B33: IgG1-F449 (antibody)
heavy: B1 heavy with S241K, W254Y, D272F, T309P, P310V, A311L, N327G
light: not shown
notes: EU numbering; copies: 2 + 2
B34: IgG1-F422 (antibody)
heavy: B1 heavy with W254Y, T309A, P310V, A311L, Q313H, E384A, Y430M
light: not shown
notes: EU numbering; copies: 2 + 2
B35: IgG1-F441 (antibody)
heavy: B1 heavy with W254M, P259A, P310V, A311L, Q313A, Y430L
light: not shown
notes: EU numbering; copies: 2 + 2
B36: IgG1-F409 (antibody)
heavy: B1 heavy with W254M, P259V, P310V, A311L, P389E, Y430L
light: not shown
notes: EU numbering; copies: 2 + 2
B37: IgG1-F453 (antibody)
heavy: B1 heavy with W254M, P259N, T309A, P310V, A311L, Y430L
light: not shown
notes: EU numbering; copies: 2 + 2
B38: IgG1-F430 (antibody)
heavy: B1 heavy with W254Y, P259V, T309Q, P310V, A311L
light: not shown
notes: EU numbering; copies: 2 + 2
B39: IgG1-F428 (antibody)
heavy: B1 heavy with W254Y, P259V, T309Q, P310V, A311L, Y430L
light: not shown
notes: EU numbering; copies: 2 + 2
B40: IgG1-F437 (antibody)
heavy: B1 heavy with W254M, P259A, T309Q, P310V, A311L, Y430M
light: not shown
notes: EU numbering; copies: 2 + 2
B41: IgG1-F446 (antibody)
heavy: B1 heavy with W254M, P259A, T309A, P310V, A311L, Q313H, Y430L
light: not shown
notes: EU numbering; copies: 2 + 2
B42: IgG1-F412 (antibody)
heavy: B1 heavy with W254M, P259V, T309G, P310V, A311L, Y430L
light: not shown
notes: EU numbering; copies: 2 + 2
B43: IgG1-F405 (antibody)
heavy: B1 heavy with W254M, P259V, T309Q, P310V, A311P, Y430L
light: not shown
notes: EU numbering; copies: 2 + 2
B44: IgG1-F427 (antibody)
heavy: B1 heavy with W254Y, P259V, T309Q, P310V, A311L, Y430V
light: not shown
notes: EU numbering; copies: 2 + 2
B45: IgG1-F439 (antibody)
heavy: B1 heavy with W254M, P259A, T309Q, P310V, A311L, Y430F
light: not shown
notes: EU numbering; copies: 2 + 2
B46: IgG1-F392 (antibody)
heavy: B1 heavy with S241K, W254Y, N288E, A311L, Y430I
light: not shown
notes: EU numbering; copies: 2 + 2
B47: IgG1-F418 (antibody)
heavy: B1 heavy with S241K, W254Y, T309P, P310V, A311L, N327G
light: not shown
notes: EU numbering; copies: 2 + 2
B48: IgG1-F395 (antibody)
heavy: B1 heavy with S241K, W254Y, T258E, A311L, Y430M
light: not shown
notes: EU numbering; copies: 2 + 2
B49: IgG1-F458 (antibody)
heavy: B1 heavy with W254M, P259V, T309Q, A311L, N327G, Y430L
light: not shown
notes: EU numbering; copies: 2 + 2
B50: IgG1-F402 (antibody)
heavy: B1 heavy with W254M, P259V, T309Q, P310V, A311L, Y430L, Y436W
light: not shown
notes: EU numbering; copies: 2 + 2
B51: IgG1-F408 (antibody)
heavy: B1 heavy with W254M, P259V, N288E, P310V, A311L, Y430L
light: not shown
notes: EU numbering; copies: 2 + 2
B52: IgG1-F407 (antibody)
heavy: B1 heavy with W254M, P259V, T309Q, P310V, A311R, Y430L
light: not shown
notes: EU numbering; copies: 2 + 2
B53: IgG1-F394 (antibody)
heavy: B1 heavy with S241K, W254Y, T309Q, P310V, A311L, Q313A, Y430I
light: not shown
notes: EU numbering; copies: 2 + 2
B54: IgG1-F397 (antibody)
heavy: B1 heavy with S241K, W254Y, D272F, T309Q, P310V, A311L, Q313A, P389E, Y430I
light: not shown
notes: EU numbering; 'T370Q' as printed, probably T307Q; copies: 2 + 2
B55: IgG1-F443 (antibody)
heavy: B1 heavy with W254M, P259A, T309Q, P310V, A311L, Q313A, Y430L
light: not shown
notes: EU numbering; copies: 2 + 2
B56: IgG1-F425 (antibody)
heavy: B1 heavy with W254M, P259A, A311E, Y430L
light: not shown
notes: EU numbering; copies: 2 + 2
B57: IgG1-F435 (antibody)
heavy: B1 heavy with W254M, P259V, T309Q, P310V, A311L, Q313A, N327G, Y430F
light: not shown
notes: EU numbering; copies: 2 + 2
B58: IgG1-F447 (antibody)
heavy: B1 heavy with W254M, P259A, N288E, T309Q, P310V, A311L, Y430L
light: not shown
notes: EU numbering; copies: 2 + 2
B59: IgG1-F436 (antibody)
heavy: B1 heavy with W254M, P259A, T309Q, P310V, A311L, Y430V
light: not shown
notes: EU numbering; copies: 2 + 2
B60: IgG1-F413 (antibody)
heavy: B1 heavy with W254M, P259V, T309P, P310V, A311L, Y430L
light: not shown
notes: EU numbering; copies: 2 + 2

The binders below were run against T1, human FcRn (soluble human FcRn complexed with β2-microglobulin) (human, UniProt P61769 21-119, limits assumed) (assay: SPR, pH 7.0;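 also: antibodies captured on a Protein L sensor chip with human FcRn injected as analyte, KD calculated from fitted association and dissociation rate constants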).
T1 construct: also called hFcRn

| Kd [nM] | Binder |
| --- | --- |
| 36 | B1 |
| 150 | B2 |
| 20 | B3 |
| 140 | B4 |
| 200 | B5 |
| 140 | B6 |
| 36 | B7 |
| 220 | B8 |
| 40 | B9 |
| 15 | B10 |
| 65 | B11 |
| 920 | B12 |
| 37 | B13 |
| 60 | B14 |
| 53 | B15 |
| 84 | B16 |
| 94 | B17 |
| 130 | B18 |
| 84 | B19 |
| 96 | B20 |

| Kd [nM] | Binder |
| --- | --- |
| 51 | B21 |
| 94 | B22 |
| 6.5 | B23 |
| 34 | B24 |
| 94 | B25 |
| 100 | B26 |
| 150 | B27 |
| 27 | B28 |
| 6.1 | B29 |
| 13 | B30 |
| 6.9 | B31 |
| 56 | B32 |
| 570 | B33 |
| 180 | B34 |
| 180 | B35 |
| 200 | B36 |
| 78 | B37 |
| 81 | B38 |
| 80 | B39 |
| 57 | B40 |

| Kd [nM] | Binder |
| --- | --- |
| 110 | B41 |
| 88 | B42 |
| 170 | B43 |
| 110 | B44 |
| 40 | B45 |
| 6.9 | B46 |
| 620 | B47 |
| 24 | B48 |
| 15 | B49 |
| 23 | B50 |
| 250 | B51 |
| 160 | B52 |
| 53 | B53 |
| 45 | B54 |
| 55 | B55 |
| 80 | B56 |
| 25 | B57 |
| 14 | B58 |
| 250 | B59 |
| 120 | B60 |
